Several values for one entry are separate records, joined by “and”; a condition that tells them apart may be missing. Equal values may be shown once.
How the values were obtained:
liver cancer H22 = test: Liver cancer H22 in mice, tumor volume (Example 7); type: in vivo, BALB/c mice; details: 18 days after tumor inoculation; once a week; PEG-mIFN-α4 1.0 μg/w sc, gemcitabine 60 mg/kg/w ip
Method: The average tumor volume for each individual group was calculated based on the formula V=1/2ab^2 (a and b represent length and width (mm) respectively) by measuring the tumor diameter, and the anti-tumor effect was observed dynamically.
Statistical tests were all two-sided tests.

lung cancer LLC = test: Lung cancer LLC in mice, tumor volume (Example 8); type: in vivo, C57BL/6N mice; details: 24 days after tumor inoculation; once a week; PEG-mIFN-α4 1.0 μg/w sc, gemcitabine 60 mg/kg/w ip
From the text: (§1) The anticancer agent was gemcitabine (Jiangsu Hansoh Pharmaceutical Group Co., Ltd). […] Statistical tests were all two-sided tests.

[1] = system: transplanted liver cancer H22; test: Transplanted liver cancer H22 in mice, survival, gemcitabine combination (Example 11); type: in vivo, BALB/c mice; details: gemcitabine 60 mg/kg ip once a week
Method: After being divided into groups, the corresponding drugs or saline were administered. […] With respect to the intermittent administration, it was administered once every 48 hours, for three times continuously, before discontinuation of 144 hours. Gemcitabine was administered by intraperitoneal injection at a dose of 60 mg per kilogram of body weight each time, once a week. The normal saline control group was given an equal volume of normal saline. The PEG-mIFN-α4 intermittent administration combined with gemcitabine group was given gemcitabine during the first injection of PEG-mIFN-α4, and then administered with gemcitabine once a week thereafter. All groups were subjected to survival analysis to compare differences between groups.

melanoma B16 = test: Melanoma B16 in mice, tumor volume (Example 10); type: in vivo, C57BL/6N mice; details: 14 days after tumor inoculation; once a week; PEG-mIFN-α4 1.0 μg/w sc, gemcitabine 60 mg/kg/w ip
From the text: as §1

colorectal cancer CT26 = test: Colorectal cancer CT26 in mice, tumor volume (Example 9); type: in vivo, BALB/c mice; details: day 43; once a week; PEG-mIFN-α4 1.0 μg/w sc, gemcitabine 60 mg/kg/w ip
From the text: as §1

[2] = system: mouse fibroblast/encephalomyocarditis virus (L929/EMCV); test: Mouse fibroblast/encephalomyocarditis virus (L929/EMCV) cytopathic inhibition method; type: cell-based; details: commercial mIFN-α4 (R&D) as the standard
Method: The bacterial endotoxin content of the deglycosylated mIFN-α4 stock solution was determined by the Limulus reagent method as lower than 60 EU/mg. specific activity was determined as 5.4×10^8 U/mg by using the commercial mIFN-α4 (R&D, catalog number 12115-1) as the standard, and by using the mouse fibroblast/encephalomyocarditis virus (L929/EMCV) cytopathic inhibition method.
The bacterial endotoxin content of the PEG-mIFN-α4 stock solution was determined by the Limulus reagent method as lower than 15 EU/mg. Specific activity was determined as 6.1×10^6 U/mg by using the commercial mIFN-α4 (R&D, catalog number 12115-1) as the standard, and by using the mouse fibroblast/encephalomyocarditis virus (L929/EMCV) cytopathic inhibition method.

[3] = system: transplanted liver cancer H22; test: Continuous vs intermittent administration, transplanted liver cancer H22 in mice, survival (Example 6); type: in vivo, BALB/c mice
[4] = design: species or system BALB/c mice; details: mouse, in vivo, sc
Method: In this example, BALB/c mice were purchased from Beijing Vital River Laboratory Animal Technology Co., Ltd. The blood concentration of PEG-mIFN-α4 was detected by double-antibody sandwich ELISA.
6-8 weeks old, SPF grade BALB/c mice (N=60, with fifty-fifty of male and female mice) were injected with a single injection of 1 μg/mouse PEG-mIFN-α4 subcutaneously on the back of the neck. Plasma samples were collected before the injection (0 h) and after the injection at 15 h, 24 h, 36 h, 48 h, 72 h, 96 h, 120 h, 168 h, 216 h, 264 h, 312 h, to determine the blood concentration. Phoenix WinNonlin 6.4 software was used to calculate the pharmacokinetic parameters.

Molecule	Mean tumor volume (Standard deviation) (liver cancer H22)	Mean tumor volume (Standard deviation) (lung cancer LLC)	mortality rate ([1]; by day 41, PEG-mIFN-α4 1 microgram per mouse intermittent)	Median survival period (Time after tumor inoculation, days) [1]	Mean tumor volume (Standard deviation) (melanoma B16)	Mean tumor volume (Standard deviation) (colorectal cancer CT26)	Specific activity [2]	Median survival period (Time after tumor inoculation, days) ([3]; continuous administration: 1 microgram per animal sc once every 48 hours, 21 times)	Survival rate during the observation period ([3]; intermittent administration: 1 microgram per animal sc once every 48 hours for 3 times, suspended 144 hours, 4 rounds, Day 40 after tumor inoculation)	Cl_F—obs [4]	T1/2 (elimination half-life) [4]	Tmax (plasma concentration peak time) [4]	Vz_F—obs [4]
Nc1ccn([C@@H]2O[C@H](CO)[C@@H](O)C2(F)F)c(=O)n1 [Gemcitabine, reference compound]	1619.3 (911.2) mm^3	1466.6 (791.5) mm^3	73.1%	21.5 days	2279.9 (807.6) mm^3	1558.2 (2225.2) mm^3							
deglycosylated mIFN-α4: recombinant mouse interferon α4 expressed in Pichia pastoris, glycosyl groups removed with glycosidase (protein, UniProt P07351 25-186, looked up, deglycosylated, recombinant mouse interferon α4 expressed in Pichia pastoris, glycosyl groups removed with glycosidase) Interferon alpha-4: CDLPHTYNLGNKRALTVLEEMRRLPPLSCLKDRKDFGFPLEKVDNQQIQKAQAILVLRDLTQQILNLFTSKDLSATWNATLLDSFCNDLHQQLNDLKACVMQEPPLTQEDSLLAVRTYFHRITVYLRKKKHSLCAWEVIRAEVWRALSSSTNLLARLSEEKE							5.4×10^8 U/mg						
PEG-mIFN-α4: PEGylated recombinant mouse interferon α4: deglycosylated mIFN-α4 modified with 40 kD Y-type polyethylene glycol succinimide ester (YPEG-NHS) (protein, UniProt P07351 25-186, looked up, 40 kD Y-type PEG, deglycosylated) Interferon alpha-4: CDLPHTYNLGNKRALTVLEEMRRLPPLSCLKDRKDFGFPLEKVDNQQIQKAQAILVLRDLTQQILNLFTSKDLSATWNATLLDSFCNDLHQQLNDLKACVMQEPPLTQEDSLLAVRTYFHRITVYLRKKKHSLCAWEVIRAEVWRALSSSTNLLARLSEEKE	846.2 (592.0) mm^3	4000.8 (2513.7) mm^3			1639.7 (979.5) mm^3	5283.7 (5030.5) mm^3	6.1×10^6 U/mg	38 days and 38.0 days	93.3% and 93.3%.	0.07 mL/h	28.3 h	24 h	2.91 mL

— patent US20230285509A1, “INTERFERON-BASED DISEASE TREATMENT METHOD” (XIAMEN AMOYTOP BIOTECH CO., LTD., priority 2019, published 2023)
